Measurements as given in publication doi:10.1101/2023.08.30.555640 (bioRxiv, 2023).

Target: Wildtype human ubiquitin (human, UniProt P0CG47 1-76)
Test: NMR titration

B1: human ubiquilin2 UBA domain (residues 578 to 621) (domain or fragment)
chain: PEVRFQQQLEQLNAMGFLNREANLQALIATGGDINAAIERLLGS
B1: binds.
